Broadly, the koff is the first-order rate constant of dissociation.

No end group written: not given here. *: point of attachment. Palmitoyl = CCCCCCCCCCCCCCCC(=O)*

Our source for the koff values is paper PMC10725492 (2023).

In this test the target is recombinant APP N-terminal (18-612) fragment (UniProt P05067-4 18-612). Nature of the test: SPR.
recombinant APP N-terminal (18-612) fragment, sequence (P05067 other isoform, or with tags, fused parts or gaps): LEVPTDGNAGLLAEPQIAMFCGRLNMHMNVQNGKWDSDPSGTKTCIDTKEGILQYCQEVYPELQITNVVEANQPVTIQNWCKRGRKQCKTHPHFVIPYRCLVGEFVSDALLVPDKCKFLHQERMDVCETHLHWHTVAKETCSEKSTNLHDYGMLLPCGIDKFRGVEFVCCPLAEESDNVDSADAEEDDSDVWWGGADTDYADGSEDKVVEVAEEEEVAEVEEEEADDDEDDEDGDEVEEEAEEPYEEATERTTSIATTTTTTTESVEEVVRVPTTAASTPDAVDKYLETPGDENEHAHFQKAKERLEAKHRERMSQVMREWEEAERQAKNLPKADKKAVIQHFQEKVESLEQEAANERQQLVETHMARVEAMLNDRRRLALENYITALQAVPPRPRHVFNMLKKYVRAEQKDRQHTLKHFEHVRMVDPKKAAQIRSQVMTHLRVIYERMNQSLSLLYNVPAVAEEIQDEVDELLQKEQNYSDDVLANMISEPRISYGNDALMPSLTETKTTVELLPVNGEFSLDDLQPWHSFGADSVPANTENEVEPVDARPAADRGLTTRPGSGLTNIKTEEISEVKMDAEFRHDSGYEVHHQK

Regarding KKKKKKLKVRLASHLRK(Palmitoyl)ELRKRLLRDA [AY51 peptide], the koff stood at 0.000356 s⁻¹.
